Results from patent US5446130A, “Parathyroid hormone antagonists” (Mitsubishi Kasei Corporation, priority 1990, dated 1995).
Where two headings read alike, the source gives them in different places. Where no end group is shown, it is not given here. The star is where a group is joined. Myristoyl = CCCCCCCCCCCCCC(=O)*

Experiments:
hPTH (1-34) [1] = target: T1, hPTH (1-34) (human, UniProt P01270)
T1 peptide: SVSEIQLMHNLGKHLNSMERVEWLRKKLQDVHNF

hPTH (1-34) [2] = target: T1, hPTH (1-34); settings: scale: ratio of IC50 to that of [Tyr34]-hPTH(3-34)-NH2
hPTH (1-34) [3] = target: T1, hPTH (1-34); assay: cell-based or functional assay
hPTH (1-34) [4] = target: T1, hPTH (1-34); assay: cell-based or functional assay

Molecule | IC50 Ratio: 50% inhibition of cAMP output, MC3T3-E1 mouse osteoblasts (hPTH (1-34) [3]) | IC50 Ratio: 50% inhibition of cAMP output, MC3T3-E1 mouse osteoblasts (hPTH (1-34) [4]) | further results
[Leu^11,D-Trp^12]-hPTHrP(7-34)-NH2 (from UniProt P12272) (peptide) | – | – | IC50 Ratio: 50% inhibition of cAMP output, MC3T3-E1 mouse osteoblasts (ratio of IC50 to that of Compound No. 15) (hPTH (1-34) [1]): 3.91
[Tyr^34]-hPTH (3-34)-NH2 (from UniProt P01270) (peptide) | – | – | IC50 Ratio: 50% inhibition of cAMP output, MC3T3-E1 mouse osteoblasts (hPTH (1-34) [2]): 1
FQLMHDKGKSIQDLRRRFFLHHLIAEIHTA-NH2 [Compound No. 8] | 0.026 ratio of IC50 to that of [Tyr34]-hPTH(3-34)-NH2 | – | –
SEIQLMHQLGKSIQDLRRRFFLHHLIAEIHTA-NH2 [Compound No. 2] | 0.003 ratio of IC50 to that of [Tyr34]-hPTH(3-34)-NH2 | – | –
SEIQLMHALGKSIQDLRRRFFLHHLIAEIHTA-NH2 [Compound No. 1] | 0.003 ratio of IC50 to that of [Tyr34]-hPTH(3-34)-NH2 | – | –
LQLMHDKGKSIQDLRRRFFLHHLIAEIHTA-NH2 [Compound No. 9] | – | 1.02 ratio of IC50 to that of Compound No. 15 | –
Myristoyl-IQLMHDKGKSIQDLRRRFFLHHLIAEIHTA-NH2 (SMILES CCCCCCCCCCCCCC(=O)N[C@H](C(=O)N[C@@H](CCC(N)=O)C(=O)N[C@@H](CC(C)C)C(=O)N[C@@H](CCSC)C(=O)N[C@@H](Cc1c[nH]cn1)C(=O)N[C@@H](CC(=O)O)C(=O)N[C@@H](CCCCN)C(=O)NCC(=O)N[C@@H](CCCCN)C(=O)N[C@@H](CO)C(=O)N[C@H](C(=O)N[C@@H](CCC(N)=O)C(=O)N[C@@H](CC(=O)O)C(=O)N[C@@H](CC(C)C)C(=O)N[C@@H](CCCNC(=N)N)C(=O)N[C@@H](CCCNC(=N)N)C(=O)N[C@@H](CCCNC(=N)N)C(=O)N[C@@H](Cc1ccccc1)C(=O)N[C@@H](Cc1ccccc1)C(=O)N[C@@H](CC(C)C)C(=O)N[C@@H](Cc1c[nH]cn1)C(=O)N[C@@H](Cc1c[nH]cn1)C(=O)N[C@@H](CC(C)C)C(=O)N[C@H](C(=O)N[C@@H](C)C(=O)N[C@@H](CCC(=O)O)C(=O)N[C@H](C(=O)N[C@@H](Cc1c[nH]cn1)C(=O)N[C@H](C(=O)N[C@@H](C)C(N)=O)[C@@H](C)O)[C@@H](C)CC)[C@@H](C)CC)[C@@H](C)CC)[C@@H](C)CC) [Compound No. 22] | – | 0.765 ratio of IC50 to that of Compound No. 15 | –
IQLMHDKGKSIQDLRRRFFLHHLIAEIHTA-NH2 [[Ile^5, Met^8]-hPTHrP (5-34)-NH2] | 0.017 ratio of IC50 to that of [Tyr34]-hPTH(3-34)-NH2 | 1 ratio of IC50 to that of Compound No. 15 | –
